Tests used:
[1] = biological target: human SNAP-GLP-1R (human) (UniProt P43220)
mouse GLP-1R (mouse) = mouse GLP-1R (mouse) (UniProt O35659)
rat GLP-1R (rat) = rat GLP-1R (rat) (UniProt P32301)
[2] = biological target: human SNAP-GLP-1R (human) (UniProt P43220); assay: FRET or BRET
mouse plasma proteins = assay: EScalate equilibrium shift assay; binding of peptide to the proteins of human or mouse plasma; percentage of peptide unbound, determined in duplicate
human plasma proteins = assay: as above

Chain of mouse GLP-1R (mouse) (O35659 22-463): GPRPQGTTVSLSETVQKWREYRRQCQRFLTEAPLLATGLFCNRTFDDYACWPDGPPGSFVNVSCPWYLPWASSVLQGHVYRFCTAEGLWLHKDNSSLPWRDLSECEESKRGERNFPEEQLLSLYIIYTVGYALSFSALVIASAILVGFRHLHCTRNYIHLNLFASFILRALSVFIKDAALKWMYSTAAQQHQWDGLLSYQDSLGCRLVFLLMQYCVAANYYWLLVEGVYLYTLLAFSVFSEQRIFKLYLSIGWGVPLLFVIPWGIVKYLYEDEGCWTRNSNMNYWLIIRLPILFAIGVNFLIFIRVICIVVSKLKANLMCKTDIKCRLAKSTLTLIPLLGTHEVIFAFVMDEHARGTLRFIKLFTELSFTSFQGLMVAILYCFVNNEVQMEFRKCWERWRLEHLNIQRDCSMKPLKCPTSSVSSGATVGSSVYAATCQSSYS
Chain of human SNAP-GLP-1R (human) (P43220 24-463): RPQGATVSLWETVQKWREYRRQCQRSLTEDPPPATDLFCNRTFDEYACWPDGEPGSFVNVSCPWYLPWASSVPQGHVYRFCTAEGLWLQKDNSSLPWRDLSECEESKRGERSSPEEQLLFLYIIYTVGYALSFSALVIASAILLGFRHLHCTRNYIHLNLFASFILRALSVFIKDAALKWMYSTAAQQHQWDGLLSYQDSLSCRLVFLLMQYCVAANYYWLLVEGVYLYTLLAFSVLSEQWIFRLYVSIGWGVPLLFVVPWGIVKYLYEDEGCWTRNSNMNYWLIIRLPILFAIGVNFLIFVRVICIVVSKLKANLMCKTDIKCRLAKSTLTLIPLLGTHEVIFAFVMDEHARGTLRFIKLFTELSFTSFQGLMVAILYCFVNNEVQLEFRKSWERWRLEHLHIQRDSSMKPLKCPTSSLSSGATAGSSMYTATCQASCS
Chain of rat GLP-1R (rat) (P32301 22-463): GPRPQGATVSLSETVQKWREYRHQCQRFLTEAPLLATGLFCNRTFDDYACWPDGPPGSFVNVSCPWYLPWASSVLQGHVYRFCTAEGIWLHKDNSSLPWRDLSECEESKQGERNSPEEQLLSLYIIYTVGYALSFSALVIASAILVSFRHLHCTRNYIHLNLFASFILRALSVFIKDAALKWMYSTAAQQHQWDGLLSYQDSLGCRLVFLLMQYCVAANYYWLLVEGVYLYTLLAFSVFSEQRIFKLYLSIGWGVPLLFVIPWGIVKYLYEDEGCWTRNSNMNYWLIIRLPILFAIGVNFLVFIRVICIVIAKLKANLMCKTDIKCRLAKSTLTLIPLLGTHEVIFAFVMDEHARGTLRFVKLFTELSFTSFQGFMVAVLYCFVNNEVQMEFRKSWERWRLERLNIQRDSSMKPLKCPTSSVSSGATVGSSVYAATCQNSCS

[D^3,G^40,K^41.C16 diacid]exendin-4 (peptide)
cAMP (1% FBS), HEK293-SNAP-GLP-1R cells, Emax [1]: 97 % max
cAMP (1% FBS), HEK293-SNAP-GLP-1R cells, pEC50 [1]: 10.4 pEC50 (M)
cAMP, MIN6B1 cells (with IBMX), Emax (mouse GLP-1R (mouse)): 97 % max
cAMP, MIN6B1 cells (with IBMX), pEC50 (mouse GLP-1R (mouse)): 10.8 pEC50 (M)
cAMP, INS-1 832/3 cells (with IBMX), Emax (rat GLP-1R (rat)): 101 % max
cAMP, INS-1 832/3 cells (with IBMX), pEC50 (rat GLP-1R (rat)): 8.7 pEC50 (M)
pKd [2]: 8.9 pKd (M)
unbound fraction (fu) (mouse plasma proteins): 2.1%
unbound fraction (fu) (human plasma proteins): 2.2%

D^3-exendin-4 (peptide)
cAMP (1% FBS), HEK293-SNAP-GLP-1R cells, Emax [1]: 96 % max
cAMP (1% FBS), HEK293-SNAP-GLP-1R cells, pEC50 [1]: 10.6 pEC50 (M)
cAMP, MIN6B1 cells (with IBMX), Emax (mouse GLP-1R (mouse)): 101 % max
cAMP, MIN6B1 cells (with IBMX), pEC50 (mouse GLP-1R (mouse)): 11 pEC50 (M)
cAMP, INS-1 832/3 cells (with IBMX), Emax (rat GLP-1R (rat)): 100 % max
cAMP, INS-1 832/3 cells (with IBMX), pEC50 (rat GLP-1R (rat)): 9 pEC50 (M)
pKd [2]: 9.1 pKd (M)

[G^40,K^41.C16 diacid]exendin-4 (from UniProt P26349 48-87) (peptide)
unbound fraction (fu) (mouse plasma proteins): 2.6%
unbound fraction (fu) (human plasma proteins): 2.3%

F^1-exendin-4 (peptide)
cAMP (1% FBS), HEK293-SNAP-GLP-1R cells, Emax [1]: 83 % max
cAMP (1% FBS), HEK293-SNAP-GLP-1R cells, pEC50 [1]: 9 pEC50 (M)
cAMP, MIN6B1 cells (with IBMX), Emax (mouse GLP-1R (mouse)): 97 % max
cAMP, MIN6B1 cells (with IBMX), pEC50 (mouse GLP-1R (mouse)): 9.2 pEC50 (M)
cAMP, INS-1 832/3 cells (with IBMX), Emax (rat GLP-1R (rat)): 97 % max
cAMP, INS-1 832/3 cells (with IBMX), pEC50 (rat GLP-1R (rat)): 8.4 pEC50 (M)
pKd [2]: 7.8 pKd (M)

[F^1,G^40,K^41.C16 diacid]exendin-4 (peptide)
cAMP (1% FBS), HEK293-SNAP-GLP-1R cells, Emax [1]: 49 % max
cAMP (1% FBS), HEK293-SNAP-GLP-1R cells, pEC50 [1]: 8.2 pEC50 (M)
cAMP, MIN6B1 cells (with IBMX), Emax (mouse GLP-1R (mouse)): 98 % max
cAMP, MIN6B1 cells (with IBMX), pEC50 (mouse GLP-1R (mouse)): 7.9 pEC50 (M)
cAMP, INS-1 832/3 cells (with IBMX), Emax (rat GLP-1R (rat)): 41 % max
cAMP, INS-1 832/3 cells (with IBMX), pEC50 (rat GLP-1R (rat)): 7.5 pEC50 (M)
pKd [2]: 8.3 pKd (M)
unbound fraction (fu) (mouse plasma proteins): 2.4%
unbound fraction (fu) (human plasma proteins): 2.1%

Reference: PMC7262448
